Data published in publication PMC10053435, “Crystal structures of dimeric and heptameric mtHsp60 reveal the mechanism of chaperonin inactivation” (Life Science Alliance, 2023).

Columns and labels:
[1] = molecular target: the molecule itself; test: SEC; protein homogenised and purified at 4°C (LT); Superdex S200pg 16/600, 25 mM Tris-HCl pH 7.6, 150 mM NaCl, 1 ml/min
[2] = molecular target: the molecule itself; test: SEC; protein homogenised and purified at room temperature (RT, 25°C); Superdex S200pg 16/600, 25 mM Tris-HCl pH 7.6, 150 mM NaCl, 1 ml/min

Row | Protein | stoichiometry N [1] | stoichiometry N [2]
1 | naïve Epinephelus coioides mtHsp60 (EcHsp60), with the mitochondrial importing signal (natural protein) MFRLPTVMKQVRPVCRALAPHLTRAYAKDVKFGADARALMLQGVDLLADAVAVTMGPKGRTVIIEQSWGSPKVTKDGVTVAKSIDLKDKYKNIGAKLVQDVANNTNEEAGDGTTTATVLARAIAKEGFDTISKGANPVEIRRGVMMAVETVIKELKNLSKPVTTPEEIAQVATISANGDVEIGNIISNAMKKVGRKGVITVKDGKTLHDELEIIEGMKFDRGYISPYFINTAKGQKCEFQDAYLLLSEKKISSVQSIVPALEIANQHRKPLVIVAEDVDGEALSTLVLNRLKVGLQVVAVKAPGFGDNRKNQLRDMAVATGGTVFGDEAVGLALEDIQAHDFGKIGEVQITKDDTLLLKGGGSPAEVEKRAAEIVEQLENTTSDYEKEKLNERLAKLSDGVAVLKVGGTSDVEVNEKKDRVTDALNATRAAVEEGIVPGGGCALLRCIPSLDAIQTANADQKIGVEIIRRALRIPAMTIAKNAGVEGSLVVEKILQGSAELGYDAMQGEYVNMVEKGIIDPTKVVRTALLDAAGVASLLSTAEAVVTEIPKEEKEMPGGMGGMGGMGGMGGMGGGMGF | 2 | 7
2 | naïve EcHsp60^ΔC (C-terminal GGM repeats truncated, Δ527–552) (domain or fragment) MFRLPTVMKQVRPVCRALAPHLTRAYAKDVKFGADARALMLQGVDLLADAVAVTMGPKGRTVIIEQSWGSPKVTKDGVTVAKSIDLKDKYKNIGAKLVQDVANNTNEEAGDGTTTATVLARAIAKEGFDTISKGANPVEIRRGVMMAVETVIKELKNLSKPVTTPEEIAQVATISANGDVEIGNIISNAMKKVGRKGVITVKDGKTLHDELEIIEGMKFDRGYISPYFINTAKGQKCEFQDAYLLLSEKKISSVQSIVPALEIANQHRKPLVIVAEDVDGEALSTLVLNRLKVGLQVVAVKAPGFGDNRKNQLRDMAVATGGTVFGDEAVGLALEDIQAHDFGKIGEVQITKDDTLLLKGGGSPAEVEKRAAEIVEQLENTTSDYEKEKLNERLAKLSDGVAVLKVGGTSDVEVNEKKDRVTDALNATRAAVEEGIVPGGGCALLRCIPSLDAIQTANADQKIGVEIIRRALRIPAMTIAKNAGVEGSLVVEKILQGSAELGYDAMQGEYVNMVEKGIIDPTKVVRTALLDAAGVASLLSTAEAVVTEIPKE | 7 | 
